Legend:
Conditions in all cases: FMN input: 0 or 200 uM; Eterna round: R93 (includes R88 designs)
[1] = system: MS2 coat protein; assay: apparent KD of MS2 coat protein, switch OFF state (with FMN for OFF switches, without FMN for ON switches); designed switch direction (-1 OFF switch, 1 ON switch): 1; higher = weaker reporter binding
How it was run: (§1)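 Apparent KD stands for the median, per design, of fits to normalised cluster binding curves. The curves came from titrating on-chip-transcribed RNA switches on Illumina sequencing clusters with SNAP-549-labelled MS2 coat protein, twofold from 0.7 or 1.5 nM to 3 µM. Buffer was 100 mM Tris-HCl pH 7.5, 80 mM KCl, 4 mM MgCl2, without or with constant ligand.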

[2] = system: MS2 coat protein; assay: apparent KD of MS2 coat protein, switch ON state; designed switch direction (-1 OFF switch, 1 ON switch): 1; higher = weaker reporter binding
How it was run: as §1

[3] = system: MS2 coat protein; assay: apparent KD of MS2 coat protein, switch ON state; designed switch direction (-1 OFF switch, 1 ON switch): -1; higher = weaker reporter binding
How it was run: as §1

[4] = system: MS2 coat protein; assay: apparent KD of MS2 coat protein, switch OFF state (with FMN for OFF switches, without FMN for ON switches); designed switch direction (-1 OFF switch, 1 ON switch): -1; higher = weaker reporter binding
How it was run: as §1

Sequence	apparent KD of MS2 coat protein [1]	apparent KD of MS2 coat protein [2]	apparent KD of MS2 coat protein [3]	apparent KD of MS2 coat protein [4]
AAAAAAAAGGGUGAGGAUAUAGAAAAAAAAACAUGAGGAUCACCCAUGUGAAAAAAAAAAAAAAGCUAGAAGGCACAAAAAAAAAA [Same State 2]	159 nM	79.2 nM	–	–
AAAAAACAUGAGGAUCACCCAUGUAAUACAACAUCAGGAUAUUGGCUUUACUAUGUAUUACAAGAAGGGAUGAAAA [Same State 1.3c (Same State 1 - Omei 2 )]	53.8 nM	171 nM	–	–
AAAAAACAUGAGGAUCACCCAUGUAGAAACAUGGGAGGAUAUACAAAGACGAAAGUCAAAGUAGAAGGCCUAAAAG [Mat - Same State 1 - Mod - D158]	69.2 nM	224 nM	–	–
AAAAAACAUGAGGAUCACCCAUGUCAAAAGACAUGAGGAUAUGUGUGGAAACCAUACUAUACAGAAGGCAUAAAAA [SS1 - 1008]	159 nM	105 nM	–	–
AAAAAACAUGAGGAUCACCCAUGUCAAAAGACGUGAGGAUAUGUACAGACUUCGGUCUGUACAGAAGGCACAAAAA [SS1 - 1031]	40.3 nM	17.2 nM	–	–
AAAAAACAUGAGGAUCACCCAUGUCCUCGGACGUGAGGAUAUGUACAGACUUCGGUCUGUACAGAAGGCAUGAAAA [SS1 - 1059]	201 nM	432 nM	–	–
AAAAAACAUGAGGAUCACCCAUGUGCAAAAUUCGCAGGAUAUUCCUCAAUUAAAUGAGAGGAAGAAGGGUGAAAAA [Nob's Hobby 26 - Jieux - Same State 1]	171 nM	21.3 nM	–	–
AAAAAACAUGAGGAUCACCCAUGUGGGAAUAUGGAAGGAUAUACAAAGACGAAAGUCAAAGUAGAAGGUCUAAAAG [76%, Meechl 2]	41.9 nM	39.6 nM	–	–
GAAAAGUCAGGAUAUAUAGGAAAAAUAAAAAAAAUAAAACUAUAGAAGGGACAUGAGGAUCACCCAUGUUAAAG [Mat - Exclusion 4 - Mayanna - D132]	–	–	44.5 nM	25.5 nM
GAAAAGUCAGGAUAUGUGGAAAAAAUAAAAAAAAUAAAAACACAGAAGGGACAUGAGGAUCACCCAUGUAAAAA [Mat - Exclusion 4 - Mayanna - D140]	–	–	68.3 nM	39 nM
GAAAAGUGAGGAUAUGUCAAAAGUCACAAAAGUGACAAAAGACAGAAGGCACAUGAGGAUCACCCAUGUGAAAA [Mat - Exaclusion 4 - Eli mod - D55]	–	–	24.2 nM	43.8 nM
GAAAAGUGAGGAUAUGUCAAAAGUCACAAAAGUGACAAAAGACAGAAGGCACAUGAGGAUCACCCAUGUGAAAG [Mat - Exaclusion 4 - Eli mod - D54]	–	–	24.7 nM	28.4 nM
GAAAAUUGAGGAUAUACGAACAUGUCAAAAGACGUGAAGGGACAUGAGGAUCACCCAUGUAGAAGGCGAAAAAG [Mat - Exclusion 2 - JL mod - D93]	–	–	32 nM	12.3 nM
GAAACACAUGAGGAUCACCCAUGUCAGGAUAUGUAGAUAAAAAGAAAAUAAAAUAAAAGCAGAAGGGACAAAAG [Mat - Same state - Mayanna Mod - D104]	–	–	30.2 nM	29.4 nM
GAAAGGGCAGGAUAUGCAGAGAGAGAGAGAGAAAAAAAAAAACAUGAGGAUCACCCAUGUAGAAGGGCCGAAAG [salish99-ex2-05]	–	–	42.4 nM	32.2 nM
GAUAGUGAAGGAUAUACUGGAGGAGUGCGAUAGAAGCAAGAACAUGAGGAUCACCCAUGUAGAAGGUCAGAAGU [JR_Exc002_Sub1224]	–	–	25.5 nM	23.2 nM
GAUCCACAUGAGGAUCACCCAUGUGAGGAUAUCGUGCAGAAAAAAAAAAAAAACUGCACGAGAAGGCACAUGGG	–	–	19.4 nM	13 nM
GCUCAGUAAGGAUAUUAAUGGCGCUGUUAUUCAGCACCAGCUGAGAAGGUACAUGAGGAUCACCCAUGUGGUGA [Berion]	–	–	240 nM	216 nM
GCUUGCGAAGGAUAUACAUGAGGAUCACCCAUGUGAGAGAAAAAAGUGAGAAAGAAAAGUAGAAGGUCGUGAGG [salish99-ex3-95]	–	–	28.3 nM	72.8 nM

Sequence	apparent KD of MS2 coat protein [1]	apparent KD of MS2 coat protein [2]	apparent KD of MS2 coat protein [3]	apparent KD of MS2 coat protein [4]
GCUUGGCUAGGAUAUACAUGAGGAUCACCCAUGUGAGAGAAAAAAGUGAGAAAGAAAAGUAGAAGGAGUUGAGG [salish99-ex3-82]	–	–	46.2 nM	39.7 nM
GGAAAACAUGAGGAUCACCCAUGUAAGGAUAUGCUAAGGAAGGAAAAAAACCCACCAGGCAGAAGGUACUAAAG [Janelle Amethyst 18 Mod 4 - Jieux - Exclusion 1]	–	–	23.1 nM	47.2 nM
GGAAAACAUGAGGAUCACCCAUGUGAGGAUAUGCAGGAUAUAGAAGGAAAAAAAAAAAGCAGAAGGUACGAAGG [salish99-ex1-17]	–	–	22.3 nM	36.3 nM
GGAGGCCAAGGAUAUACAUGAGGAUCACCCAUGUGAGAGAAAAAAGUGAGAAAGAAAAGUAGAAGGUGGUUUCG [salish99-ex3-129]	–	–	65.4 nM	131 nM
GGCUGGCGAGGAUAUACAUGAGGAUCACCCAUGUGAGAGAAAAAAGUGAGAAAGAAAAGUAGAAGGCGCUGGCG [salish99-ex3-55]	–	–	34.1 nM	81.4 nM
GGGUAACAUGAGGAUCACCCAUGUGAGGAUAUCCUAGGGAUGGAAGCCAGGCCAAAAAGGAGAAGGUACUAAAG [Janelle Amethyst 18 Mod 17 - Jieux - Exclusion 1]	–	–	54.2 nM	72.4 nM
GGGUAACAUGAGGAUCACCCAUGUGAGGAUAUGCUAGGGAUGGAAGCCAGGCCAAAAAGCAGAAGGUACUAAAG [Janelle Amethyst 18 Mod 16 - Jieux - Exclusion 1]	–	–	23.6 nM	34.3 nM
GGUUGAGAAGGAUAUACAUGAGGAUCACCCAUGUGAGAGAAAAAAGUGAGAAAGAAAAGUAGAAGGUCUUGACG [salish99-ex3-63]	–	–	29 nM	95.9 nM
GGUUGAUGAGGAUAUACAUGAGGAUCACCCAUGUGAGAGAAAAAAGUGAGAAAGAAAAGUAGAAGGCAUUGACG [salish99-ex3-60]	–	–	37.7 nM	69.4 nM
GGUUGGCAAGGAUAUACAUGAGGAUCACCCAUGUGAGAGAAAAAAGUGAGAAAGAAAAGUAGAAGGUGUUGACG [salish99-ex3-75]	–	–	26.8 nM	53 nM
GGUUGGCGAGGAUAUACAUGAGGAUCACCCAUGUGAGAGAAAAAAGUGAGGAGGAGAAGUAGAAGGCGCUGACG [salish99-ex3-17]	–	–	18.9 nM	3.7 nM
GGUUGGCGAGGAUAUACAUGAGGAUCACCCAUGUGAGAGAAAAAAGUGUGAAAGAAAAGUAGAAGGCGCUGACG [salish99-ex3-54]	–	–	31 nM	13 nM
GGUUUGCAAGGAUAUACAUGAGGAUCACCCAUGUGAGAGAAAAAAGUGAGAAAGAAAAGUAGAAGGUGCGGACG [salish99-ex3-121]	–	–	22.3 nM	62.7 nM
GGUUUGCUAGGAUAUACAUGAGGAUCACCCAUGUGAGAGAAAAAAGUGAGAAAGAAAAGUAGAAGGAGCGGACG [salish99-ex3-122]	–	–	68.2 nM	66.4 nM
GUGUACAGAGGAUAUACAUGAGCAUGGAAACAUGCAAGAUCACAUGAGGAUCACCCAUGUAGAAGGCUGUACAC [Ex2: 733]	–	–	50.3 nM	30.8 nM
GUUAUGUGAGGAUAUAUGUAGGAAACUACAUUAAGGGUAUCACAUGAGGAUCACCCAUGUAGAAGGCGCGUAGC [Ex2Try2_Neo]	–	–	283 nM	256 nM
UAAAAGUGAGGAUAUGUCAAAAGUCACAAAAGUGACAAAAGACAGAAGGCACAUGAGGAUCACCCAUGUGAAAU [Mat - Exaclusion 4 - Eli mod - D56]	–	–	23.3 nM	32.2 nM
UCCGCACAUGAGGAUCACCCAUGUCAGGAUAUACAAGAAAAUCAGGCUAAUGCCUGAAGUAGAAGGGACGAGGA [Armaingean]	–	–	27.7 nM	16 nM
UCCUGACAUGAGGAUCACCCAUGUCAGGAUAUAGUAUGAAAAAAAAAAAAAAAAAAUACUAGAAGGGACAUGGG [Design 12: Super Stable Short Helix 3]	–	–	29.2 nM	21.6 nM
